Assay results as given in patent US20250057951A1, “DISCERNIBLE CELL SURFACE PROTEIN VARIANTS OF CD117 FOR USE IN CELL THERAPY” (UNIVERSITÄT BASEL, priority 2021, published 2025).

Legend:
TF-1 cells [1] = experiment: SCF-dependent proliferation of TF-1 cells with CD117 knock-in (CellTiter-Glo); type: cell-based, human; conditions: 100 ng/ml SCF; 3 days; knock-in TF-1 cells
Method: SCF-dependent proliferation is another function of CD117. SCF-dependent proliferation was measured as follows: TF-1 cells were seeded at a cell concentration of 150 000 cells/ml in sterile, white cell culture treated plates in RPMI Media+10% FCS. Cells were treated with 100 ng/ml of SCF and a titration of various CD117 antibodies or an isotype control antibody at different concentrations. After 3 days of incubation a CellTiter-Glo 2.0 assay (Promega) was performed and luminescence was read in a luminometer (e.g. Envision or Phera Star plate readers).
CD117 wild-type TF-1 cells were compared to TF1 cells with a E73K knock in. […] Both KI1 and KI2 were obtained upon sorting the edited TF1 cells using the SONY MA900, removing any wild-type and knock out cells from the final subsets, thus yielding high purity of knock in.

TF-1 cells [2] = experiment: SCF-dependent phosphorylation of CD117 variants in TF-1 cells (Tyr719 ELISA); type: cell-based, human; conditions: 1-20 ng/ml SCF for 5 minutes
Method: TF-1 cells (wild type, knock out, and variants E73K, D121K and S123K of CD117) were seeded at a concentration of 1 million cells/ml in 2 ml of Medium (RPMI1640 supplemented with GlutaMAX+10% heat inactivated FBS) in a 6-well plate. Cells were treated with 1-20 ng/ml recombinant human SCF (1 mg/ml PeproGMP Recombinant Human SCF) for 5 minutes, before cell collection. Cells were washed with ice-cold PBS, before resuspending cells in 500 μL Lysis Buffer (Lysis buffer from Signaling containing Protease Inhibitor and Phosphatase Inhibitor). Cells were flash frozen in liquid nitrogen and thawed at 37° C. twice, before freezing them at −80° C. until further usage. Undiluted samples were thawed and processed according to the manufacturers protocol for the PathScan Phospho-c-Kit (Tyr719) Sandwich ELISA Kit (Cell Signaling). Absorbance (OD_450 nm) was assessed using the Envision (Perkin Elmer).

antibody Refmab #1 [3] = experiment: Octet titration, steady state KD of CD117 D1-2-3 variants to Refmab #1; type: binding
Method: To further characterize binding of Refmab #1 to CD117 D1-2-3 variants E73K, E73L, E73R, E73Y, D121H, D121K, S123K and S123F, the analytes were titrated at 7 different concentrations (from 2000 nM to 5 nM). Antibody Refmab #1 was captured by AHC biosensors for 300 s at 0.5 to 1 μg/mL. Association and dissociation to Refmab #1 was extended to 600 s and 1000 s, respectively. Steady state analysis was performed.

TF-1 cells [4] = experiment: SCF-dependent proliferation, SCF titration on TF-1 cells with CD117 variants (CellTiter-Glo); type: cell-based, human; conditions: titration of SCF; 3 days; TF-1 cells with the CD117 variant
Summary of the method: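 TF-1 cells expressing wildtype or variant CD117 seeded at 150 000 cells/ml in RPMI+GlutaMax+10% FCS and titrated with SCF. Viability read by CellTiter-Glo 2.0 luminescence after 3 days; EC50 determined from two experiments, each in triplicate.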

antibody Refmab #1 [5] = experiment: Octet screen: binding of CD117 D1-2-3 variants to captured Refmab #1; conditions: nm shift at end of association, top analyte concentration (500 nM)
Summary of the method: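 Refmab #1 captured on anti-human Fc biosensors; human CD117 D1-2-3 wt or variants flowed as analyte at 500, 50 and 5 nM, 25° C., 300 s association/900 s dissociation, buffer-referenced. Binding level at top concentration, end of association, expressed as percent of wild type; 1:1 fits where possible.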

CD117+ myeloid cells = experiment: Depletion experiment in NSG mice with E73K gene-edited HSPCs; type: in vivo; conditions: in the presence of isotype control antibody
Method: In another experiment, NSG mice (Jackson Laboratories) were sub-lethally irradiated one day before injection with 1 Mio gene-edited HSPCs carrying a E73K variant of CD117. 8, 10, 12 and 14 days after cell injection mice received 25 mg/kg antibody Refmab #1-Bert or 25 mg/kg isotope control antibody i.v. per dose. 16 weeks later the mice were euthanized, and blood, spleen and bone marrow were analyzed by FACS.
CD117+ myeloid cells were identified by FACS as live/hCD45+/CD33+/CD117+. […] Clone 104D2 was used as an expression control. Cells were classified as not edited (104D2+ and SR-1+) or E73K edited (104D2+ but SR-1−) based on double staining with anti-CD117 clone SR-1 and anti-CD117 clone 104D2.

Refmab #1 = Refmab #1 titration on engineered TF-1 cells (flow cytometry); type: binding; conditions: 5-0.00015 μg/mL antibody; 4° C.
Method: Binding of Refmab #1 was assessed in a flow cytometry assay. TF-1 cells were seeded at a cell concentration of 1,000,000 cells/ml in FACS Buffer (PBS+2% FCS+1 mM EDTA). After a Fc blocking using 1:20 diluted TruStain (BioLegend, #422302) in FACS buffer for 15 minutes at 4° C., cells were washed twice with FACS buffer. Subsequently, a SR-1 titration was added to the cells using 5-0.00015 μg/mL antibody for 30 minutes at 4° C. on a plate shaker. Cells were washed twice with FACS buffer and a secondary labelled antibody (IgG (H+L) Cross-Adsorbed Goat anti-Human, Alexa Fluor® 488, Invitrogen, A11013) was added to the cells for 30 minutes at 4° C. on a plate shaker. Cells were washed twice with FACS buffer, before adding 1:100 diluted solution of 7AAD staining (cell viability) in FACS buffer for a couple of minutes and analyzing the cells using the Novocyte Quanteon (Agilent).

[6] = Melting temperature of CD117 variants by differential scanning fluorimetry; type: physicochemical; conditions: Sypro Orange, PBS, 25 to 95° C.
Method: Biophysical properties of the elected variants were tested. Aggregation of the elected CD117 variants was determined by preparative size exclusion chromatography. Yield of the elected CD117 variants was determined by dividing the amount of protein after purification by the production volume. Melting temperature was measured by differential scanning fluorimetry using Sypro Orange (Sigma, PN: S5692-50 ul) and an RT-PCR machine (C1000 Thermal Cycler, Biorad). The samples were measured at 0.25-1.0 mg/ml in PBS buffer in duplicates and Sypro Orange was added at a final concentration of 5×. […] The fluorescent increase was monitored as a function of temperature and the melting temperature was determined as the inflexion point of the sigmoidal curve and compared to wild-type CD117. Results are shown in FIGS. 4 (aggregation), 5 (yield) and 6 (melting temperature).

Biotinylated Avitag-hSCF = target: T1, Biotinylated Avitag-hSCF (human, UniProt P21583 26-190, limits assumed, biotinylated Avitag); experiment: BLI (Octet), steady state: biotinylated SCF on streptavidin biosensor, CD117 D1-2-3 variant as analyte; KD relative to WT
T1 construct: Bought reagent; also called hSCF (Acros Biosystems SCF-H82E1)
Method: Domains 4 and 5 were used as a negative, non-binding control.
Association was monitored for 300 s and dissociation for 600 s. […] Reference subtraction was performed against buffer only wells. Biosensors were not regenerated and a new set of SA biosensors was used for each analyte. Data were analyzed using the Octet Data Analysis software HT 12.0. Steady state data analysis was performed due to the fast on/off nature of the interaction.

human wild-type CD117 [7] = target: T2, human wild-type CD117 (human, UniProt P10721 26-976); experiment: flow cytometry, HEK-293T with wt CD117 vs vector alone, IgG at 0.063 µg/mL
T2 construct: also called wt CD117; KIT
Method: Binding of the antibodies to the transfected cells and the optimal assay conditions were evaluated in 384-well format. Detection of cellular expression was measured via high-throughput flow cytometry. Serial dilutions of each antibody were tested for immunoreactivity against cells expressing CD117 or vector alone. The optimal screening concentration for each antibody was determined based on the raw signal values and signal-to-background calculations. Each point represents the mean of four replicates.

[8] = target: T3, human CD117 D1-2-3 variant S261Q (human, UniProt P10721 26-311, limits assumed); experiment: BLI (Octet) as in Example 7, CD117 variant as analyte; affinity class as drawn
T3 construct: Recombinant purified

[9] = target: T4, human CD117 D1-2-3 variant S261E (human, UniProt P10721 26-311, limits assumed); experiment: as above
T4 construct: Recombinant purified

CD117 D1-2-3 wt = target: T5, CD117 D1-2-3 wt (human, UniProt P10721 26-311, limits assumed); experiment: BLI (Octet) as in Example 7, CD117 as analyte; affinity class as drawn, classes defined by the key on the sheet
T5 construct: also called human CD117 wt containing only domains 1, 2 and 3; wild type CD117 (recombinant purified)

[10] = target: human CD117 D1-2-3 variant Y259E (human, UniProt P10721 26-311, limits assumed); experiment: BLI (Octet) as in Example 7, CD117 variant as analyte; affinity class as drawn, classes defined by the key on the sheet
Method: (§1) As an analyte, human CD117 wt and variants, containing only domains 1, 2 and 3 (CD117 D1-2-3), was titrated at 500 nM, 50 nM and 5 nM. […] Reference subtraction was performed against buffer only wells. AHC tips were regenerated using 10 mM Gly-HCl pH 1.7. Data were analyzed using the Octet Data Analysis software HT 12.0. Data were fitted (when possible) to a 1:1 binding model. Kinetic rates ka and ka were globally fitted. […] For this qualitative analysis, the binding level of the top analyte concentration at end of the association step was used.

[11] = target: human CD117 D1-2-3 variant Y259A (human, UniProt P10721 26-311, limits assumed); experiment: as above
Method: as §1

Y259G = target: T6, Y259G (limits assumed); experiment: as above
T6 construct: not in the list MOLECULES; also called human CD117 D1-2-3 variant Y259G
T6 extracellular domains 1, 2 and 3: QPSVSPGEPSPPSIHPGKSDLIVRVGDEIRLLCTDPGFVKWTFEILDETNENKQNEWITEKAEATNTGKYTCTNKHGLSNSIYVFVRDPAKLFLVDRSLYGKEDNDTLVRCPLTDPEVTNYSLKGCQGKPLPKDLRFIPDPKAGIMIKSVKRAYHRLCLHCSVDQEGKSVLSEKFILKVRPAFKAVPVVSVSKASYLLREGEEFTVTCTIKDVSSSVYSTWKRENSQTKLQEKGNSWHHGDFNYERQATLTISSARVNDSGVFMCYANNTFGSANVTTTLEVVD
Method: as §1

S261V = target: T7, S261V (limits assumed); experiment: as above
T7 construct: not in the list MOLECULES; also called human CD117 D1-2-3 variant S261V
T7 extracellular domains 1, 2 and 3: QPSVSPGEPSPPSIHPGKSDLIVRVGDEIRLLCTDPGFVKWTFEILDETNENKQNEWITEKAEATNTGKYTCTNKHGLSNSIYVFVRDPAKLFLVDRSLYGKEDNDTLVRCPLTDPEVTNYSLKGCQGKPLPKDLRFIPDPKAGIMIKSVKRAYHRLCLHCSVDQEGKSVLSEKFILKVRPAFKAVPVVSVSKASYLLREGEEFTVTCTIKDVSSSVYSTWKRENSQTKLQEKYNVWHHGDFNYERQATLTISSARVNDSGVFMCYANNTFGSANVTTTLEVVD
Method: as §1

[12] = target: human CD117 D1-2-3 variant Y259P (human, UniProt P10721 26-311, limits assumed); experiment: as above
Method: as §1

human wild-type CD117 [13] = target: T2, human wild-type CD117; experiment: flow cytometry, HEK-293T with wt CD117 vs vector alone, Fab at 0.50 µg/mL

Chain of antibody Refmab #1 (as listed by the source): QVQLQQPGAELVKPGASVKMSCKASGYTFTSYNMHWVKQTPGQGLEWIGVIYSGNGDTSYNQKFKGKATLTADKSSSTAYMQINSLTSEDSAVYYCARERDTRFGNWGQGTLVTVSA
Chain of antibody Refmab #1 (as listed by the source): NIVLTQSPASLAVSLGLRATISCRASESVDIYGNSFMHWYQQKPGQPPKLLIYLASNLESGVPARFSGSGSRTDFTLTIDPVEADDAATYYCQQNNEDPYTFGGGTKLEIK
T1 sequence (P21583 26-190 limits assumed): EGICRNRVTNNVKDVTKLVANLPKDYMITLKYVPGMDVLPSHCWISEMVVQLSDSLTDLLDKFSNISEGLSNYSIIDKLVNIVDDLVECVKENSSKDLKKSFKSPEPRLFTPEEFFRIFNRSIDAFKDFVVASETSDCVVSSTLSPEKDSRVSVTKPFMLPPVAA

E73K: variant of human CD117 (SEQ ID NO: 1) with substitution E73K
SCF-dependent proliferation (TF-1 cells [1]): strongly proliferated
SCF-dependent phosphorylation at position Tyr719 of CD117 (TF-1 cells [2]): showed a SCF-dependent phosphorylation
Kd (antibody Refmab #1 [3]; 7 concentrations 2000-5 nM, steady state, two individual experiments): 1200 nM
change of KD compared to wild type CD117 (antibody Refmab #1 [3]; KD variant vs wild type): 1200 fold
EC50 Experiment #1 (TF-1 cells [4]): 3.73 ng/mL
EC50 Experiment #2 (TF-1 cells [4]): 3.42 ng/mL
binding to Refmab #1 compared to wild type (antibody Refmab #1 [5]): strong decrease in binding
engraftment of edited CD34+ human cells in immune-deficient mice (CD117+ myeloid cells): engraft essentially as well as unedited cells
Binding of Refmab #1 to TF-1 cells expressing the CD117 variant (Refmab #1): completely abolished

B1: V120P (receptor)
extracellular domains 1, 2 and 3: QPSVSPGEPSPPSIHPGKSDLIVRVGDEIRLLCTDPGFVKWTFEILDETNENKQNEWITEKAEATNTGKYTCTNKHGLSNSIYVFVRDPAKLFLPDRSLYGKEDNDTLVRCPLTDPEVTNYSLKGCQGKPLPKDLRFIPDPKAGIMIKSVKRAYHRLCLHCSVDQEGKSVLSEKFILKVRPAFKAVPVVSVSKASYLLREGEEFTVTCTIKDVSSSVYSTWKRENSQTKLQEKYNSWHHGDFNYERQATLTISSARVNDSGVFMCYANNTFGSANVTTTLEVVD
notes: not in the list MOLECULES; also called human CD117 D1-2-3 variant V120P
melting temperature [6]: two melting points were measured
binding result (Biotinylated Avitag-hSCF): binds

B2: Refmab #3 (antibody, V domains shown)
VH: EVQLVQSGAEVKKPGESLKISCKGSGYSFTNYWIGWVRQMPGKGLEWMAIINPRDSDTRYRPSFQGQVTISADKSISTAYLQWSSLKASDTAMYYCARHGRGYEGYEGAFDIWGQGTLVTVSS
VL: DIQMTQSPSSLSASVGDRVTITCRSSQGIRSDLGWYQQKPGKAPKLLIYDASNLETGVPSRFSGSGSGTDFTLTISSLQPEDFATYYCQQANGFPLTFGGGTKVEIK
Signal:Background (human wild-type CD117 [7]): 8 ratio to background
binding result [8]: no binding (tested: not shown on the sheet)
binding result [9]: no binding (tested: not shown on the sheet)
Kd (CD117 D1-2-3 wt): < 5 nM
Kd [10]: < 5 nM
Kd [11]: > 50 nM
Kd (Y259G): > 50 nM
Kd (S261V): > 50 nM
Kd [12]: > 50 nM

B3: Refmab #3 Fab fragment (Fab, V domains shown)
VH: EVQLVQSGAEVKKPGESLKISCKGSGYSFTNYWIGWVRQMPGKGLEWMAIINPRDSDTRYRPSFQGQVTISADKSISTAYLQWSSLKASDTAMYYCARHGRGYEGYEGAFDIWGQGTLVTVSS
VL: DIQMTQSPSSLSASVGDRVTITCRSSQGIRSDLGWYQQKPGKAPKLLIYDASNLETGVPSRFSGSGSGTDFTLTISSLQPEDFATYYCQQANGFPLTFGGGTKVEIK
Signal:Background (human wild-type CD117 [13]): 6 ratio to background
